Source: article PMC4622719
pKd: −log10 of the molar value. Where two headings read alike, the source gives them in different places.

Tests used:
[1] = molecular target: human neonatal Fc receptor (human) (UniProt P55899); test: SPR
adalimumab (human) [2] = test: BLI
adalimumab (human) [3] = test: BLI; remark: listed apart in the source

Chain of UniProt P55899 (P55899 24-297): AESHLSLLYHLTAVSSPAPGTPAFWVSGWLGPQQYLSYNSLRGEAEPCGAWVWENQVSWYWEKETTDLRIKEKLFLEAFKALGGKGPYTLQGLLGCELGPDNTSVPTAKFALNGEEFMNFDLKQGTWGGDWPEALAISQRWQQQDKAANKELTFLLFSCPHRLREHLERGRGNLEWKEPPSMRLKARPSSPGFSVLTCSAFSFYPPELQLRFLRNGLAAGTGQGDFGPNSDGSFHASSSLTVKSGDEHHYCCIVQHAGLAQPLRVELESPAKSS

KD1 [1] [nM] | KD2 [1] [nM] | ka1 [1] [M⁻¹ s⁻¹] | ka2 [1] [M⁻¹ s⁻¹] | kd1 [1] [s⁻¹] | kd2 [1] [s⁻¹] | koff (adalimumab (human) [2]) [s⁻¹] | pKd (adalimumab (human) [3]) | koff (adalimumab (human) [3]) [s⁻¹] | kon (adalimumab (human) [3]) [M⁻¹ s⁻¹] | Substance
8.77 | 467 | 906000 | 362000 | 0.0073 | 0.141 | – | – | – | – | adalimumab (antibody)
– | – | – | – | – | – | 4.81e-05 | 11.34 | 5.5e-06 | 1.32e+06 | recombinant human tumor necrosis factor (from UniProt P01375 77-233) (ligand)
